The target in assay [1] is Protein A (Staphylococcus aureus, UniProt P38507). As to the method:
In some embodiments, the KD of an IgG Fc polypeptide, such as a variant IgG Fc polypeptide, to Protein A or to C1q or to CD16 is measured by using biolayer interferometry assays using a biosensor, such as an Octet® System (Pall ForteBio LLC, Fremont, CA) according to the supplier's instructions. In brief, biotinylated Protein A or C1q or CD16 is bound to the sensor tip and the association of IgG Fc polypeptide is monitored for a specified time or until steady state is reached. Dissociation may be monitored for a specified time or until steady state is reached. A buffer only blank curve is subtracted to correct for any drift. The data are fit to a 2:1 binding model using ForteBio data analysis software to determine association rate constant (kon), dissociation rate constant (koff), and the Kd. The equilibrium dissociation constant (KD) is calculated as the ratio of koff/kon. The term “kon” refers to the rate constant for association of a molecule X to its partner Y and the term “koff” refers to the rate constant for dissociation of a molecule X or partner Y from the molecule X/partner Y complex.
Binding analysis may be performed using an Octet biosensor. Briefly, the target molecule (e.g., Protein A, C1q, CD16, etc.) may be biotinylated and free unreacted biotin removed (e.g., by dialysis). The biotinylated target molecule is captured on streptavidin sensor tips. Association of the target molecule with various concentrations (e.g., 10 μg/mL) of IgG Fc polypeptide is monitored for a specified time or until steady state is reached. Dissociation is monitored for a specified time or until steady state is reached. A buffer only blank curve may be subtracted to correct for any drift. The data are fit to a 1:1 binding model using ForteBio™ data analysis software to determine the kon, koff, and the Kd.

In assay [2] the target is C1q (Homo sapiens, UniProt P02745+P02746+P02747). Put plainly: C1q binding of IgG Fc polypeptides (Octet biolayer interferometry described). As to C1q binding: key: (−) denotes low or no measurable binding activity. The source says:
Binding analysis may be performed using an Octet biosensor.

C1q, sequence (P02745 23-245): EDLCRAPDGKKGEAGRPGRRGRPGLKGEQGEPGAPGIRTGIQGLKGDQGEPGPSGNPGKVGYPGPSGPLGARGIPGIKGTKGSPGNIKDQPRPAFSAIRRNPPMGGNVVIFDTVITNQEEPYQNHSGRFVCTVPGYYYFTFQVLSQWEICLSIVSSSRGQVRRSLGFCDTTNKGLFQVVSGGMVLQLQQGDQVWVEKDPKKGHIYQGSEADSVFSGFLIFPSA
C1q, sequence (P02746 28-253): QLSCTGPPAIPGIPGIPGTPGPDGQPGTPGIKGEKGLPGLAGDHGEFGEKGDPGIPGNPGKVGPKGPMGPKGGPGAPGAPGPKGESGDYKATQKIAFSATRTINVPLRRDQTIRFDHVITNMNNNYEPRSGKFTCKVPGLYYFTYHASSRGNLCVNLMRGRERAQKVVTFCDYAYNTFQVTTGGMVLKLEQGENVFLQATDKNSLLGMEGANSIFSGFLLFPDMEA
C1q, sequence (P02747 29-245): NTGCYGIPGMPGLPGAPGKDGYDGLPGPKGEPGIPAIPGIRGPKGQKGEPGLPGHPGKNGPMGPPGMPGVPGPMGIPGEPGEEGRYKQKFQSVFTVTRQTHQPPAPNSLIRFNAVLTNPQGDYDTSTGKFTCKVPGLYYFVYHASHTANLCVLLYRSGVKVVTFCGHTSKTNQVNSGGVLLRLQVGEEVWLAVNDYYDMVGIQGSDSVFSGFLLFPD

B1: equine IgG2 Fc: wild-type equine IgG2 Fc polypeptide (protein)
chain 1: DMSKCPKCPAPELLGGPSVFIFPPNPKDALMISRTPVVTCVVVNLSDQYPDVQFSWYVDNTEVHSAITKQREAQFNSTYRVVSVLPIQHQDWLSGKEFKCSVTNVGVPQPISRAISRGKGPSRVPQVYVLPPHPDELAKSKVSVTCLVKDFYPPDISVEWQSNRWPELEGKYSTTPAQLDGDGSYFLYSKLSLETSRWQQVESFTCAVMHEALHNHFTKTDISESLGK
chain 2: GGPSVFIFPPNPKDALMISRTPVVTCVVVNLSDQYPDVQFSWYVDNTEVHSAITKQREAQFNSTYRVVSVLPIQHQDWLSGKEFKCSVTNVGVPQPISRAISRGKGPSRVPQVYVLPPHPDELAKSKVSVTCLVKDFYPPDISVEWQSNRWPELEGKYSTTPAQLDGDGSYFLYSKLSLETSRWQQVESFTCAVMHEALHNHFTKTDISESLGK
modifications: Synthetic Variant equine Fc IgG2 (with equine IgG1 hinge), Protein A - , C1q -; Wild-type equine IgG2 Fc, Protein A -, C1q -
notes: wild-type equine IgG2 Fc polypeptide
With B1, the “Protein A binding affinity” value in assay [1] is “weak or no measurable Protein A binding affinity”. Besides, the “Protein A Binding” value in assay [1] (Wild-type Equine IgG Fc) was “−”. Further, the “binding affinity to C1q” value in assay [2] is given as “weak or no measurable binding affinity to C1q”. Further, the “C1q Binding” value in assay [2] (Wild-type Equine IgG Fc) was “−”.

B2: equine IgG4 Fc: wild-type equine IgG4 Fc polypeptide (protein)
chain: VGPSVFIFPPKPKDVLMISRTPTVTCVVVDVGHDFPDVQFNWYVDGVETHTATTEPKQEQFNSTYRVVSVLPIQHKDWLSGKEFKCKVNNKALPAPVERTISAPTGQPREPQVYVLAPHRDELSKNKVSVTCLVKDFYPPDIDIEWKSNGQPEPETKYSTTPAQLDSDGSYFLYSKLTVETNRWQQGTTFTCAVMHEALHNHYTEKSVSKSPGK
modifications: Wild-type equine IgG4 Fc, Protein A +, C1q +
notes: wild-type equine IgG4 Fc polypeptide
In the case of B2, in assay [1], the “Protein A binding affinity” value was “have Protein A binding affinity”. The “binding affinity to C1q” value in assay [2] is on record as “bind to C1q”.

B3: equine IgG7 Fc: wild-type equine IgG7 Fc polypeptide (protein)
chain: VGPSVFIFPPKPKDVLMISRTPTVTCVVVDVGHDFPDVQFNWYVDGVETHTATTEPKQEQNNSTYRVVSILAIQHKDWLSGKEFKCKVNNQALPAPVQKTISKPTGQPREPQVYVLAPHPDELSKNKVSVTCLVKDFYPPDIDIEWKSNGQPEPETKYSTTPAQLDGDGSYFLYSKLTVETNRWQQGTTFTCAVMHEALHNHYTEKSVSKSPGK
modifications: Wild-type equine IgG7 Fc, Protein A +, C1q +
notes: wild-type equine IgG7 Fc polypeptide
On to B3, for which, in assay [1], the “Protein A binding affinity” value is “have Protein A binding affinity”. Moreover, the “binding affinity to C1q” value in assay [2] is reported as “bind to C1q”.

B4: equine IgG3 Fc: wild-type equine IgG3 Fc polypeptide (protein)
chain: GGPSVFIFPPKPKDVLMITRMPEVTCLVVDVSHDSSDVLFTWYVDGTEVKTAKTMPNEEQNNSTYRVVSVLRIQHQDWLNGKKFKCKVNNQALPAPVERTISKATGQTRVPQVYVLAPHPDELSKNKVSVTCLVKDFYPPDITVEWQSNEHPEPEGKYRTTEAQKDSDGSYFLYSKLTVEKDRWQQGTTFTCVVMHEALHNHVMQKNISKNPGK
modifications: Wild-type equine IgG3 Fc, Protein A +, C1q+
notes: wild-type equine IgG3 Fc polypeptide
In the case of B4, the “Protein A binding affinity” value in assay [1] is “have Protein A binding affinity”. The “binding affinity to C1q” value in assay [2] is “bind to C1q”.

B5: equine IgG1 Fc: wild-type equine IgG1 Fc polypeptide (protein)
chain: GGPSVFLFPPNPKDTLMITRTPEVTCVVVDVSQENPDVKFNWYMDGVEVRTATTRPKEEQFNSTYRVVSVLRIQHQDWLSGKEFKCKVNNQALPQPIERTITKTKGRSQEPQVYVLAPHPDESKKSKVSVTCLVKDFYPPEINIEWQSNGQPELETKYSTTQAQQDSDGSYFLYSKLSVDRNRWQQGTTFTCGVMHEALHNHYTQKNVSKNPGK
modifications: Wild-type equine IgG1 Fc , Protein A +, C1q +
notes: wild-type equine IgG1 Fc polypeptide
For B5, in assay [1], the “Protein A binding affinity” value was “have Protein A binding affinity”. Moreover, in assay [2], the “binding affinity to C1q” value is “bind to C1q”.

The record behind these values is patent US12297272B2, “IgG Fc variants for veterinary use” (Elanco US Inc., priority 2017, dated 2025).
